Here are results for seven molecules from patent US20260242735A1 (UNIVERSIT T BASEL, published 2026).

One experiment deals with human CD33 P48K (human, UniProt P20138 18-364). Put plainly: flow cytometry, transfected cells.
The target in another experiment is human CD33 P48S (human, UniProt P20138 18-364). The experiment in a line: flow cytometry, transfected cells.
A further experiment has as its target human CD33 Y50R (human, UniProt P20138 18-364). Put plainly: flow cytometry, transfected cells.
For the next experiment, the target named is human CD33 L277A (human, UniProt P20138 18-364). Put plainly: flow cytometry, HEK293-T, alanine scan.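 Note: transiently transfected HEK293-T cells expressing single alanine mutants of human CD33 (alanine residues changed to serine), antibody binding fluorescence minus background, relative to wild type CD33, mean of duplicates.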
The target of the next experiment is human CD33 F279A (human, UniProt P20138 18-364). Put plainly: flow cytometry, HEK293-T, alanine scan.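 Note: transiently transfected HEK293-T cells expressing single alanine mutants of human CD33 (alanine residues changed to serine), antibody binding fluorescence minus background, relative to wild type CD33, mean of duplicates.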
Another experiment deals with human CD33 H285A (human, UniProt P20138 18-364). The experiment in a line: flow cytometry, HEK293-T, alanine scan.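 Note: transiently transfected HEK293-T cells expressing single alanine mutants of human CD33 (alanine residues changed to serine), antibody binding fluorescence minus background, relative to wild type CD33, mean of duplicates.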
Another experiment addresses human CD33 K288A (human, UniProt P20138 18-364). Put plainly: flow cytometry, HEK293-T, alanine scan.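 Note: transiently transfected HEK293-T cells expressing single alanine mutants of human CD33 (alanine residues changed to serine), antibody binding fluorescence minus background, relative to wild type CD33, mean of duplicates.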
For a further experiment, the target named is human CD33 G304A (human, UniProt P20138 18-364). Put plainly: flow cytometry, HEK293-T, alanine scan.
The target of another experiment is human CD33 G318A (human, UniProt P20138 18-364). The experiment in a line: flow cytometry, HEK293-T, alanine scan.
Another experiment has as its target human CD33 L271A (human, UniProt P20138 18-364). Put plainly: flow cytometry, HEK293-T, alanine scan.
In the next experiment the target is human CD33 C325A (human, UniProt P20138 18-364). Put plainly: flow cytometry, HEK293-T, alanine scan.
Another experiment addresses human CD33 S326A (human, UniProt P20138 18-364). The experiment in a line: flow cytometry, HEK293-T, alanine scan.
Another experiment has as its target human CD33 E333A (human, UniProt P20138 18-364). Put plainly: flow cytometry, HEK293-T, alanine scan.
The target of a further experiment is human CD33 L338A (human, UniProt P20138 18-364). The experiment in a line: flow cytometry, HEK293-T, alanine scan.
The target of the next experiment is human CD33 A341S (human, UniProt P20138 18-364). Put plainly: flow cytometry, HEK293-T, alanine scan.
Another experiment deals with human CD33 S342A (human, UniProt P20138 18-364). Put plainly: flow cytometry, HEK293-T, alanine scan.
In a further experiment the target is human CD33 L273A (human, UniProt P20138 18-364). Put plainly: flow cytometry, HEK293-T, alanine scan.
The next experiment addresses human CD33 F345A (human, UniProt P20138 18-364). The experiment in a line: flow cytometry, HEK293-T, alanine scan.
The target of another experiment is human CD33 S131F (human, UniProt P20138 18-364). Put plainly: flow cytometry, transfected cells.
The target of the next experiment is human CD33 S131W (human, UniProt P20138 18-364). The experiment in a line: flow cytometry, transfected cells.
The target in another experiment is human CD33 P132S (human, UniProt P20138 18-364). Put plainly: flow cytometry, transfected cells.
Another experiment has as its target human CD33 P132F (human, UniProt P20138 18-364). The experiment in a line: flow cytometry, transfected cells.
Another experiment has as its target human CD33 P132Y (human, UniProt P20138 18-364). The experiment in a line: flow cytometry, transfected cells.
A further experiment has as its target human CD33 P132Q (human, UniProt P20138 18-364). The experiment in a line: flow cytometry, transfected cells.
For a further experiment, the target named is human CD33 W22Y (human, UniProt P20138 18-364). The experiment in a line: flow cytometry, transfected cells.
Another experiment deals with human CD33 Q24E (human, UniProt P20138 18-364). The experiment in a line: flow cytometry, transfected cells.
Another experiment concerns the target human CD33 H45Y (human, UniProt P20138 18-364). Put plainly: flow cytometry, transfected cells.
The next experiment has as its target human CD33 N20S (human, UniProt P20138 18-364). The experiment in a line: flow cytometry, transfected cells.
Another experiment deals with human CD33 N20L (human, UniProt P20138 18-364). The experiment in a line: flow cytometry, transfected cells.
Another experiment concerns the target human CD33 Q24T (human, UniProt P20138 18-364). The experiment in a line: flow cytometry, transfected cells.
The target of a further experiment is human CD33 Q24H (human, UniProt P20138 18-364). The experiment in a line: flow cytometry, transfected cells.
The next experiment deals with T1, human CD33 Y129A (human, UniProt P20138 18-364).
T1 construct: alanine scan clone, transfected HEK293-T
Put plainly: alanine scan, flow cytometry, HEK293-T.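 Note: antibody binding to each alanine-substituted CD33 mutant expressed transiently in HEK293-T, read as fluorescence minus background, mean of duplicates, relative to wild-type CD33 set as 100%.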

In another experiment the target is T2, human CD33 L134A (human, UniProt P20138 18-364).
T2 construct: alanine scan clone, transfected HEK293-T
The experiment in a line: alanine scan, flow cytometry, HEK293-T.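 Note: antibody binding to each alanine-substituted CD33 mutant expressed transiently in HEK293-T, read as fluorescence minus background, mean of duplicates, relative to wild-type CD33 set as 100%.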

Another experiment concerns the target human CD33 D51K (human, UniProt P20138 18-364). The experiment in a line: flow cytometry, transfected cells.
For the next experiment, the target named is human CD33 K52S (human, UniProt P20138 18-364). The experiment in a line: flow cytometry, transfected cells.
The next experiment deals with human CD33 Y49Q (human, UniProt P20138 18-364). Put plainly: flow cytometry, transfected cells.
Another experiment concerns the target human CD33 Y49G (human, UniProt P20138 18-364). Put plainly: flow cytometry, transfected cells.
The target in another experiment is human CD33 K52Y (human, UniProt P20138 18-364). The experiment in a line: flow cytometry, transfected cells.
A further experiment concerns the target human CD33 K52T (human, UniProt P20138 18-364). The experiment in a line: flow cytometry, transfected cells.

Sequence of human CD33 S326A (P20138 18-364 S326A limits assumed): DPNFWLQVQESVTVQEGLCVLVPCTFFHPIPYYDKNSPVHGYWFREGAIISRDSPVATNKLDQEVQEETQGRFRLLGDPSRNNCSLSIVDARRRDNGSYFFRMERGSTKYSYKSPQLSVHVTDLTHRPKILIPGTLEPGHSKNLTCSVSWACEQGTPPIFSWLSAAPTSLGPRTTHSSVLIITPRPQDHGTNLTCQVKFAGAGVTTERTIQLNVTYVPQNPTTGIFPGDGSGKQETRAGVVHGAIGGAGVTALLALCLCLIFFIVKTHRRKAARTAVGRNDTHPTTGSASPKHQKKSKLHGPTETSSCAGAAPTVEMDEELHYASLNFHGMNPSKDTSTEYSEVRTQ
Sequence of human CD33 F279A (P20138 18-364 F279A limits assumed): as the sequence (P20138 18-364 S326A limits assumed) above, with F262A, A309S counted along it
Sequence of human CD33 F345A (P20138 18-364 F345A limits assumed): as the sequence (P20138 18-364 S326A limits assumed) above, with A309S, F328A counted along it
Sequence of human CD33 L277A (P20138 18-364 L277A limits assumed): as the sequence (P20138 18-364 S326A limits assumed) above, with L260A, A309S counted along it
Sequence of human CD33 H285A (P20138 18-364 H285A limits assumed): as the sequence (P20138 18-364 S326A limits assumed) above, with H268A, A309S counted along it
Sequence of human CD33 E333A (P20138 18-364 E333A limits assumed): as the sequence (P20138 18-364 S326A limits assumed) above, with A309S, E316A counted along it
Sequence of human CD33 S342A (P20138 18-364 S342A limits assumed): as the sequence (P20138 18-364 S326A limits assumed) above, with A309S, S325A counted along it
Sequence of human CD33 A341S (P20138 18-364 A341S limits assumed): as the sequence (P20138 18-364 S326A limits assumed) above, with A309S, A324S counted along it
Sequence of human CD33 C325A (P20138 18-364 C325A limits assumed): as the sequence (P20138 18-364 S326A limits assumed) above, with C308A, A309S counted along it
Sequence of human CD33 K288A (P20138 18-364 K288A limits assumed): as the sequence (P20138 18-364 S326A limits assumed) above, with K271A, A309S counted along it
Sequence of human CD33 G304A (P20138 18-364 G304A limits assumed): as the sequence (P20138 18-364 S326A limits assumed) above, with G287A, A309S counted along it
Sequence of human CD33 L271A (P20138 18-364 L271A limits assumed): as the sequence (P20138 18-364 S326A limits assumed) above, with L254A, A309S counted along it
Sequence of human CD33 G318A (P20138 18-364 G318A limits assumed): as the sequence (P20138 18-364 S326A limits assumed) above, with G301A, A309S counted along it
Sequence of human CD33 L338A (P20138 18-364 L338A limits assumed): as the sequence (P20138 18-364 S326A limits assumed) above, with A309S, L321A counted along it
Protocol for human CD33 A341S: (§1) An alanine scan on human CD33 was performed to the determine the residues on CD33 that are involved in binding to the antibodies investigated. […] Briefly, a mutation library of CD33 was created by high-throughput, site-directed mutagenesis. Each residue was individually mutated to alanine, with alanine codons mutated to serine. The mutant library was arrayed in 384-well microplates and transiently transfected into HEK293-T. Following transfection, cells were incubated with the indicated antibodies (IgG or Fab) at concentrations pre-determined using an independent immunofluorescence titration curve on wild type CD33. […] Binding of each antibody to each mutant clone was determined in duplicates. For each point, background fluorescence was subtracted from the raw data, which were then normalized to antibody reactivity with wild type CD33.
(§2) Critical residues for antibody binding (outlined in dark grey) were residues whose mutations led to a binding of the test Abs of less than 20%. Additional secondary residues (outlined in light grey) were identified that led to a binding of the test Abs of between 20 and 40% as compared to the wild type CD33.
Protocol for human CD33 C325A: as §1, §2
Protocol for human CD33 E333A: as §1, §2
Protocol for human CD33 F279A: as §1, §2
Protocol for human CD33 F345A: as §1, §2
Protocol for human CD33 G304A: as §1, §2
Protocol for human CD33 G318A: as §1, §2
Protocol for human CD33 H285A: as §1, §2
Protocol for human CD33 K288A: as §1, §2
Protocol for human CD33 L271A: as §1, §2
Protocol for human CD33 L273A: as §1, §2
Protocol for human CD33 L277A: as §1, §2
Protocol for human CD33 L338A: as §1, §2
Protocol for human CD33 S326A: as §1, §2
Protocol for human CD33 S342A: as §1, §2

B1: Refmab #4 (antibody, human IgG1, V domains shown)
VH: QVQLVQSGAEVKKPGESVKVSCKASGYTFTNYGMNWVKQAPGQGLEWMGWINTYTGEPTYADKFQGRVTMTTDTSTSTAYMEIRNLGGDDTAVYYCARWSWSDGYYVYFDYWGQGTSVTVSS
VL: DIVMTQSPDSLTVSLGERTTINCKSSQSVLDSSTNKNSLAWYQQKPGQPPKLLLSWASTRESGIPDRFSGSGSGTDFTLTIDSPQPEDSATYYCQQSAHFPITFGQGTRLEIK
In the case of B1, the binding result in the experiment with human CD33 P48K, with human CD33 P48S and in the experiment with human CD33 Y50R was “no binding (tested: below 20%)” in each case.

B2: Refmab #6 (antibody, V domains shown)
VH: QVQLQQPGAEVVKPGASVKMSCKASGYTFTSYYIHWIKQTPGQGLEWVGVIYPGNDDISYNQKFQGKATLTADKSSTTAYMQLSSLTSEDSAVYYCAREVRLRYFDVWGQGTTVTVSS
VL: EIVLTQSPGSLAVSPGERVTMSCKSSQSVFFSSSQKNYLAWYQQIPGQSPRLLIYWASTRESGVPDRFTGSGSGTDFTLTISSVQPEDLAIYYCHQYLSSRTFGQGTKLEIK
notes: The alanine scan used IgG or Fab
For the molecule B2, the “Mean % WT Binding” value is 104 % WT binding in the experiment with human CD33 L277A; 102 % WT binding with human CD33 F279A; 103 % WT binding in the experiment with human CD33 H285A; 100 % WT binding with human CD33 K288A; 100 % WT binding with human CD33 G304A; 89.1 % WT binding in the experiment with human CD33 G318A. Moreover, the “Mean % WT Binding” value in the experiment with human CD33 L271A is 106 % WT binding; with human CD33 C325A, 111 % WT binding; with human CD33 S326A, 88.8 % WT binding; in the experiment with human CD33 E333A, 98.7 % WT binding; with human CD33 L338A, 103 % WT binding; with human CD33 A341S, 89.6 % WT binding. The “Mean % WT Binding” value worked out at 102 % WT binding with human CD33 S342A, 104 % WT binding with human CD33 L273A and 98.4 % WT binding with human CD33 F345A.

B3: Refmab #6 (antibody, human IgG1, V domains shown)
VH: QVQLQQPGAEVVKPGASVKMSCKASGYTFTSYYIHWIKQTPGQGLEWVGVIYPGNDDISYNQKFQGKATLTADKSSTTAYMQLSSLTSEDSAVYYCAREVRLRYFDVWGQGTTVTVSS
VL: EIVLTQSPGSLAVSPGERVTMSCKSSQSVFFSSSQKNYLAWYQQIPGQSPRLLIYWASTRESGVPDRFTGSGSGTDFTLTISSVQPEDLAIYYCHQYLSSRTFGQGTKLEIK
On to B3, for which the binding result with human CD33 S131F, in the experiment with human CD33 S131W, in the experiment with human CD33 P132S, with human CD33 P132F, in the experiment with human CD33 P132Y and with human CD33 P132Q was “no binding (tested: below 20%)” each time. Besides, the binding result in the experiment with human CD33 W22Y is reported as “no binding (tested: below 20%)”.

B4: Refmab #3 (antibody, human IgG1, V domains shown)
VH: QVQLVQSGAEVKKPGSSVKVSCKASGYTFTDYNMHWVRQAPGQGLEWIGYIYPYNGGTGYNQKFKSKATITADESTNTAYMELSSLRSEDTAVYYCARGRPAMDYWGQGTLVTVSS
VL: DIQMTQSPSSLSASVGDRVTITCRASESVDNYGISFMNWFQQKPGKAPKLLIYAASNQGSGVPSRFSGSGSGTDFTLTISSLQPDDFATYYCQQSKEVPWTFGQGTKVEIK
In the case of B4, the binding result in the experiment with human CD33 Q24E, with human CD33 H45Y, in the experiment with human CD33 N20S, with human CD33 N20L, with human CD33 Q24T and with human CD33 Q24H was “no binding (tested: below 20%)” each time.

B5: Refmab #5 (antibody, V domains shown)
VH: QVQLVQSGAEVKKPGASVKVSCKASGYTFTNYDINWVRQAPGQGLEWIGWIYPGDGSTKYNEKFKAKATLTADTSTSTAYMELRSLRSDDTAVYYCASGYEDAMDYWGQGTTVTVSS
VL: DIQMTQSPSSLSASVGDRVTINCKASQDINSYLSWFQQKPGKAPKTLIYRANRLVDGVPSRFSGSGSGQDYTLTISSLQPEDFATYYCLQYDEFPLTFGGGTKVEIK
notes: as for B2
In the case of B5, the “Mean % WT Binding” value was found to be 196 % WT binding in the experiment with human CD33 Y129A and 95.9 % WT binding in the experiment with human CD33 L134A.

B6: Refmab #5 (antibody, V domains shown)
VH: QVQLVQSGAEVKKPGASVKVSCKASGYTFTNYDINWVRQAPGQGLEWIGWIYPGDGSTKYNEKFKAKATLTADTSTSTAYMELRSLRSDDTAVYYCASGYEDAMDYWGQGTTVTVSS
VL: DIQMTQSPSSLSASVGDRVTINCKASQDINSYLSWFQQKPGKAPKTLIYRANRLVDGVPSRFSGSGSGQDYTLTISSLQPEDFATYYCLQYDEFPLTFGGGTKVEIK
notes: as for B2
Turning to B6, the “Mean % WT Binding” value stood at 89 % WT binding in the experiment with human CD33 L277A; 100 % WT binding in the experiment with human CD33 F279A; 116 % WT binding in the experiment with human CD33 H285A; 97.9 % WT binding in the experiment with human CD33 K288A; 79.1 % WT binding with human CD33 G304A; 87.1 % WT binding with human CD33 G318A. Further, the “Mean % WT Binding” value stood at 84.9 % WT binding in the experiment with human CD33 L271A; 107 % WT binding with human CD33 C325A; 107 % WT binding in the experiment with human CD33 S326A; 121 % WT binding in the experiment with human CD33 E333A; 105 % WT binding with human CD33 L338A; 113 % WT binding in the experiment with human CD33 A341S. For the same molecule, the figures for the “Mean % WT Binding” value in the experiment with human CD33 S342A, with human CD33 L273A and with human CD33 F345A were 101 % WT binding, 102 % WT binding and 86.4 % WT binding, respectively.

B7: Refmab #5 (antibody, human IgG1, V domains shown)
VH: QVQLVQSGAEVKKPGASVKVSCKASGYTFTNYDINWVRQAPGQGLEWIGWIYPGDGSTKYNEKFKAKATLTADTSTSTAYMELRSLRSDDTAVYYCASGYEDAMDYWGQGTTVTVSS
VL: DIQMTQSPSSLSASVGDRVTINCKASQDINSYLSWFQQKPGKAPKTLIYRANRLVDGVPSRFSGSGSGQDYTLTISSLQPEDFATYYCLQYDEFPLTFGGGTKVEIK
Turning to B7, the binding result with human CD33 D51K, with human CD33 K52S, with human CD33 Y49Q, with human CD33 Y49G, in the experiment with human CD33 K52Y and with human CD33 K52T was “no binding (tested: below 20%)” throughout.
